The source of these data is paper PMC4892509, “Binding of the Fkh1 Forkhead Associated Domain to a Phosphopeptide within the Mph1 DNA Helicase Regulates Mating-Type Switching in Budding Yeast” (PLoS Genetics, 2016).

The target in assay [1] is T1, Fkh1-6xHis (Saccharomyces cerevisiae, UniProt P40466).
T1 construct: C-terminally His-tagged full length Fkh1 protein was expressed from a pET28b expression vector in Rosetta E. coli; made in house; host or cells: Rosetta E. coli (pET28b)
T1 sequence (P40466 1-484): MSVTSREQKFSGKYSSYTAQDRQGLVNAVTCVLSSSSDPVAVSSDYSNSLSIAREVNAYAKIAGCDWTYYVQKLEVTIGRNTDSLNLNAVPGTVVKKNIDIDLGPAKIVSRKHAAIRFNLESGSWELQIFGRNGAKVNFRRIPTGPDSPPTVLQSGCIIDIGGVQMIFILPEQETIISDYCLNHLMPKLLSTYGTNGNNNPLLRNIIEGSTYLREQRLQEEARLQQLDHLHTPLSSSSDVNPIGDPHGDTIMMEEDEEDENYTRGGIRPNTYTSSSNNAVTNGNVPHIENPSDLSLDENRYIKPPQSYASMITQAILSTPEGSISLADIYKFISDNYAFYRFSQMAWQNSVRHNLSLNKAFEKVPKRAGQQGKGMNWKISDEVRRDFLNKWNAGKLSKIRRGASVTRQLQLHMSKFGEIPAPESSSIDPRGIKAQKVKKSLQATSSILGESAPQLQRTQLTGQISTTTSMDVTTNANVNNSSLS
The assay can be described thus: Fluorescence anisotropy binding of Mph1-derived peptides to recombinant Fkh1-6xHis. A general note: Polarisation of emitted light reports the rotation of a fluorescent probe.
Description: To this end, recombinant Fkh1-6xHis was purified from E. coli and its ability to bind an 18-residue peptide representing Mph1(772–789) was assessed by fluorescence anisotropy (Fig 6).
(B) Peptide binding assay of Fkh1-6xHis and Mph1-derived peptides using fluorescence anisotropy. Binding reactions contained the indicated concentration of purified His-tagged Fkh1 and 3 nM 5-carboxyfluorescein labeled Mph1-derived peptide (5cf-aha-[sequence]) with threonines phosphorylated or unmodified, as indicated.
Peptides (constant final concentration of 3 nM) were mixed with titrations of purified Fkh1-6xHis protein in binding buffer (50 mM HEPES pH 7.0, 200 mM KCl, 10% glycerol, 5 mM BME, 1 mM EDTA, 1 mM EGTA, 5 mM MgOAc, 0.02% NP-40, protease inhibitors (Calbiotech)). Polarization at each concentration was measured in triplicates in 384-well polystyrene black microplates (Thermo Fisher Scientific #262260) by a Biotek Synergy H4 multimode plate reader (light source: xenon flash, offset from top: 7 mm, sensitivity: 60%, excitation: 485/20 nm, emission: 528/20 nm, both parallel and perpendicular, normal read speed). Fraction bound (Fb) at each concentration was calculated based on the corresponding polarization values (P): Fbc = (Pc—Pmin) / (Pmax—Pmin), where Pmin is the polarization value of the no-protein control and Pmax is the polarization value of the saturation value for that peptide. […]

Assay [2] deals with Fkh1 (UniProt P40466). The assay can be described thus: fluorescence anisotropy titration.
Assay [3] concerns the target T2, Recombinant Fkh1-6xHis (S. cerevisiae, UniProt P40466 1-484).
T2 construct: Fkh1, S. cerevisiae, full length; also called His-tagged Fkh1; purified Fkh1; source: Rosetta E. coli (pET28b), purified (nickel chromatography); not shown: 6xHis, C-terminal, kept
T2 sequence (looked up): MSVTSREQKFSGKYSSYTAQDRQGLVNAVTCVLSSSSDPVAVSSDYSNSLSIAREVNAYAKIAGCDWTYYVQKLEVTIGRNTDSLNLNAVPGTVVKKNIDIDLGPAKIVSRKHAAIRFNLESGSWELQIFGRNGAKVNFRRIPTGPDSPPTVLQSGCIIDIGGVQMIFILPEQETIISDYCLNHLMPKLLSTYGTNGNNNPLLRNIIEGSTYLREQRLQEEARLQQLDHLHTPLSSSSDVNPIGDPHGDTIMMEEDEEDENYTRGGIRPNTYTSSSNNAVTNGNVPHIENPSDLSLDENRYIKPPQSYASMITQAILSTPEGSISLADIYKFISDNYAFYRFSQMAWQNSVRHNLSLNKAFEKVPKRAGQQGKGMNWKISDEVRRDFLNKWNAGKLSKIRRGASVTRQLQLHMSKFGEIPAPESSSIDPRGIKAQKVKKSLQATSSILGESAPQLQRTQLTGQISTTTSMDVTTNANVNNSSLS
In words: fluorescence polarisation; fluorescence anisotropy: 3 nM 5-carboxyfluorescein labeled peptide, titration of purified Fkh1-6xHis; 50 mM HEPES pH 7.0, 200 mM KCl, 10% glycerol, 5 mM BME, 1 mM EDTA, 1 mM EGTA, 5 mM MgOAc, 0.02% NP-40; Fb = [protein] / ([protein] + Kd). The following applies: both partners purified.

Non-standard residues stand in square brackets, D forms with d. No end group written: not given here. *: point of attachment. 5FAM = O=C1OC2(c3ccc(O)cc3Oc3cc(O)ccc32)c2ccc(C(=O)*)cc21; pT = C[C@@H](OP(=O)(O)O)[C@H](N)C(=O)O; Ahx = NCCCCCC(=O)O Some results are limits rather than exact numbers.

As for `CC(C)C[C@H](NC(=O)[C@H](CO)NC(=O)[C@H](CO)NC(=O)[C@H](CO)NC(=O)[C@H](C)NC(=O)[C@H](CCC(=O)O)NC(=O)[C@H](CCC(=O)O)NC(=O)[C@@H](NC(=O)[C@H](CO)NC(=O)[C@H](CC(=O)O)NC(=O)[C@H](CC(N)=O)NC(=O)[C@H](CCC(=O)O)NC(=O)CCCCCNC(=O)c1ccc2c(c1)C(=O)OC21c2ccc(O)cc2Oc2cc(O)ccc21)[C@@H](C)O)C(=O)N[C@@H](CCC(=O)O)C(=O)N[C@H](C(=O)N[C@@H](CCC(=O)O)C(=O)N[C@@H](CC(=O)O)C(=O)N[C@@H](CCC(=O)O)C(=O)N[C@@H](CCC(=O)O)C(=O)O)[C@@H](C)O` [Non-phosphorylated], the “fold reduced affinity for Fkh1 (non-phosphorylated vs peptide phosphorylated on both T776 and T785)” value in assay [1] (relative to peptide phosphorylated on both T776 and T785) is listed as > 100 -fold.

In the case of `CC(C)C[C@H](NC(=O)[C@H](CO)NC(=O)[C@H](CO)NC(=O)[C@H](CO)NC(=O)[C@H](C)NC(=O)[C@H](CCC(=O)O)NC(=O)[C@H](CCC(=O)O)NC(=O)[C@@H](NC(=O)[C@H](CO)NC(=O)[C@H](CC(=O)O)NC(=O)[C@H](CC(N)=O)NC(=O)[C@H](CCC(=O)O)NC(=O)CCCCCNC(=O)c1ccc2c(c1)C(=O)OC21c2ccc(O)cc2Oc2cc(O)ccc21)[C@@H](C)OP(=O)(O)O)C(=O)N[C@@H](CCC(=O)O)C(=O)N[C@H](C(=O)N[C@@H](CCC(=O)O)C(=O)N[C@@H](CC(=O)O)C(=O)N[C@@H](CCC(=O)O)C(=O)N[C@@H](CCC(=O)O)C(=O)O)[C@@H](C)OP(=O)(O)O` [pT776 pT785], in assay [1] (3 nM labeled peptide, pH 7.0), the “binding to purified Fkh1, result in words” value is given as “bound purified Fkh1 efficiently”.

As to “Mph1 772-789 (from UniProt P40562) pT776 pT785 peptide”, the “binding against the reference” value in assay [2] (reference: pT776 peptide, sites T785) is recorded as “stronger”; in assay [2] (reference: pT785 peptide, sites T776), “stronger”.

Consider “Mph1 772-789 (from UniProt P40562) pT776 peptide”, for which, in assay [2] (reference: unphosphorylated peptide, sites T776), the “binding against the reference” value is listed as “stronger”.

Consider “Mph1 772-789 (from UniProt P40562) pT785 peptide”, for which the “binding against the reference” value in assay [2] (reference: unphosphorylated peptide, sites T785) is recorded as “stronger”.

B1: Mph1(772–789) peptide phosphorylated on both T776 and T785 (peptide)
peptide: {5FAM-Ahx}-ENDS[pT]EEASSSLE[pT]EDEE
notes: Mph1, S. cerevisiae, 18-residue peptide representing Mph1(772–789); source: synthetic peptide
Regarding B1, the Kd in assay [3] worked out at 2.2 µM.

B2: Mph1(772–789) peptide, non-phosphorylated (peptide)
peptide: {5FAM-Ahx}-ENDSTEEASSSLETEDEE
notes: as for B1
Consider B2, for which the Kd in assay [3] turned out to be 271 µM.

As a reminder, the Kd is a measure of binding affinity in units of concentration.
